# According to article PMC6914362 (Nature, 2019):
# Experiments:
# [1] = molecular target: the molecule itself; test: SEC
# [2] = molecular target: the molecule itself; test: native gel or EMSA
# [3] = molecular target: the molecule itself; test: SEC; remark: listed apart in the source
Protein,stoichiometry N [1],other results
"SHMT2ΔN (residues 18-504), dimeric (PLP-free) form (enzyme, human, UniProt P34897 18-504, looked up) QLVRMAIRAQHSNAAQTQTGEANRGWTGQESLSDSDPEMWELLQREKDRQCRGLELIASENFCSRAALEALGSCLNNKYSEGYPGKRYYGGAEVVDEIELLCQRRALEAFDLDPAQWGVNVQPYSGSPANLAVYTALLQPHDRIMGLDLPDGGHLTHGYMSDVKRISATSIFFESMPYKLNPKTGLIDYNQLALTARLFRPRLIIAGTSAYARLIDYARMREVCDEVKAHLLADMAHISGLVAAKVIPSPFKHADIVTTTTHKTLRGARSGLIFYRKGVKAVDPKTGREIPYTFEDRINFAVFPSLQGGPHNHAIAAVAVALKQACTPMFREYSLQVLKNARAMADALLERGYSLVSGGTDNHLVLVDLRPKGLDGARAERVLELVSITANKNTCPGDRSAITPGGLRLGAPALTSRQFREDDFRRVVDFIDEGVNIGLEVKSKTAKLQDFKSFLLKDSETSQRLANLRQRVEQFARAFPMPGFDEH",2,–
"SHMT2ΔN (residues 18-504), PLP-bound tetramer (enzyme, human, UniProt P34897 18-504, looked up, pyridoxal-5'-phosphate (PLP) bound, internal aldimine linkage; PLP acceptor Lys280) QLVRMAIRAQHSNAAQTQTGEANRGWTGQESLSDSDPEMWELLQREKDRQCRGLELIASENFCSRAALEALGSCLNNKYSEGYPGKRYYGGAEVVDEIELLCQRRALEAFDLDPAQWGVNVQPYSGSPANLAVYTALLQPHDRIMGLDLPDGGHLTHGYMSDVKRISATSIFFESMPYKLNPKTGLIDYNQLALTARLFRPRLIIAGTSAYARLIDYARMREVCDEVKAHLLADMAHISGLVAAKVIPSPFKHADIVTTTTHKTLRGARSGLIFYRKGVKAVDPKTGREIPYTFEDRINFAVFPSLQGGPHNHAIAAVAVALKQACTPMFREYSLQVLKNARAMADALLERGYSLVSGGTDNHLVLVDLRPKGLDGARAERVLELVSITANKNTCPGDRSAITPGGLRLGAPALTSRQFREDDFRRVVDFIDEGVNIGLEVKSKTAKLQDFKSFLLKDSETSQRLANLRQRVEQFARAFPMPGFDEH",4,–
"Flag-HA epitope-tagged SHMT2ΔN (MEFs) (enzyme, human, UniProt P34897 18-504, looked up) QLVRMAIRAQHSNAAQTQTGEANRGWTGQESLSDSDPEMWELLQREKDRQCRGLELIASENFCSRAALEALGSCLNNKYSEGYPGKRYYGGAEVVDEIELLCQRRALEAFDLDPAQWGVNVQPYSGSPANLAVYTALLQPHDRIMGLDLPDGGHLTHGYMSDVKRISATSIFFESMPYKLNPKTGLIDYNQLALTARLFRPRLIIAGTSAYARLIDYARMREVCDEVKAHLLADMAHISGLVAAKVIPSPFKHADIVTTTTHKTLRGARSGLIFYRKGVKAVDPKTGREIPYTFEDRINFAVFPSLQGGPHNHAIAAVAVALKQACTPMFREYSLQVLKNARAMADALLERGYSLVSGGTDNHLVLVDLRPKGLDGARAERVLELVSITANKNTCPGDRSAITPGGLRLGAPALTSRQFREDDFRRVVDFIDEGVNIGLEVKSKTAKLQDFKSFLLKDSETSQRLANLRQRVEQFARAFPMPGFDEH",–,stoichiometry N [2]: 2
"SHMT1 wild type (enzyme, human, UniProt P34896 1-483, looked up) MTMPVNGAHKDADLWSSHDKMLAQPLKDSDVEVYNIIKKESNRQRVGLELIASENFASRAVLEALGSCLNNKYSEGYPGQRYYGGTEFIDELETLCQKRALQAYKLDPQCWGVNVQPYSGSPANFAVYTALVEPHGRIMGLDLPDGGHLTHGFMTDKKKISATSIFFESMPYKVNPDTGYINYDQLEENARLFHPKLIIAGTSCYSRNLEYARLRKIADENGAYLMADMAHISGLVAAGVVPSPFEHCHVVTTTTHKTLRGCRAGMIFYRKGVKSVDPKTGKEILYNLESLINSAVFPGLQGGPHNHAIAGVAVALKQAMTLEFKVYQHQVVANCRALSEALTELGYKIVTGGSDNHLILVDLRSKGTDGGRAEKVLEACSIACNKNTCPGDRSALRPSGLRLGTPALTSRGLLEKDFQKVAHFIHRGIELTLQIQSDTGVRATLKEFKERLAGDKYQAAVQALREEVESFASLFPLPGLPDF",–,stoichiometry N [3]: 4
"SHMT2ΔN+A285T (enzyme, human, UniProt P34897 18-504, looked up) QLVRMAIRAQHSNAAQTQTGEANRGWTGQESLSDSDPEMWELLQREKDRQCRGLELIASENFCSRAALEALGSCLNNKYSEGYPGKRYYGGAEVVDEIELLCQRRALEAFDLDPAQWGVNVQPYSGSPANLAVYTALLQPHDRIMGLDLPDGGHLTHGYMSDVKRISATSIFFESMPYKLNPKTGLIDYNQLALTARLFRPRLIIAGTSAYARLIDYARMREVCDEVKAHLLADMAHISGLVAAKVIPSPFKHADIVTTTTHKTLRGTRSGLIFYRKGVKAVDPKTGREIPYTFEDRINFAVFPSLQGGPHNHAIAAVAVALKQACTPMFREYSLQVLKNARAMADALLERGYSLVSGGTDNHLVLVDLRPKGLDGARAERVLELVSITANKNTCPGDRSAITPGGLRLGAPALTSRQFREDDFRRVVDFIDEGVNIGLEVKSKTAKLQDFKSFLLKDSETSQRLANLRQRVEQFARAFPMPGFDEH",2,–
